The source of these data is PMC12068740.

The experiment concerns the target Htz1(T46C)-2xFLAG (yeast H2A.Z with a cysteine probe) (yeast). Put plainly: cross-linking; VivosX: disulfide cross-linking in living yeast cells with 180 uM 4-DPS for 20 min at 30 C; TCA fixation; non-reducing SDS-PAGE and anti-FLAG immunoblot, bands normalised to H4; WT cells (swc2 and swr1 deletion cells also tested, with fewer ZZ and AZ adducts). In general terms: In western blotting, separated proteins are transferred to a membrane and probed.

In turn, “2xV5-Hta1(N39C) (yeast H2A with a cysteine probe) (natural protein)” returned a percent of bulk H2A.Z in the H2A-to-H2A.Z cross-linked adduct (WT cells) of 57%.

Substance “Htz1(T46C)-2xFLAG (yeast H2A.Z with a cysteine probe) (natural protein)” displayed a percent of bulk H2A.Z in the H2A.Z-to-H2A.Z cross-linked adduct (WT cells) of 12%.
